In paper PMC12093976, “Characterization of 2-phenanthroyl-CoA reductase, an ATP-independent type III aryl-CoA reductase involved in anaerobic phenanthrene degradation” (Applied and Environmental Microbiology, 2025):

Tested on: T1, CC(C)(COP(=O)(O)OP(=O)(O)OC[C@H]1O[C@@H](n2cnc3c(N)ncnc32)[C@H](O)[C@@H]1OP(=O)(O)O)[C@@H](O)C(=O)NCCC(=O)NCCSC(=O)c1ccc2c(ccc3ccccc32)c1
T1 construct: codon-optimized gene in pASG-IBA103, C-terminal twin-Strep-tag, E. coli BL21(DE3); 72 kDa monomer; FMN, FAD, [4Fe-4S]; primers encode N-terminal MKLFEPIK and C-terminal LAALH
Assay: LC/MS of dihydro-2-phenanthroyl-CoA formation, initial rates
Format: biochemical, uncultured Desulfobacterium sp.
Details: dithionite-reduced methyl viologen as electron donor, 1 mM NADH, 50 µM FMN, 1 mM FAD, 50 mM HEPES pH 7.5, 30 °C, anoxic, substrate varied 2-100 µM
Text: LC/MS of dihydro-2-phenanthroyl-CoA formation, initial rates on 2-phenanthroyl-CoA reductase

“2-phenanthroyl-CoA reductase (uncultured Desulfobacterium sp.)” showed a Km of 1.8 µM and a Vmax of 7.9 µmol/min/mg.
